According to IntAct's records for PubMed 19779455:

B1: E3 SUMO-protein ligase PIAS4 (Homo sapiens), Q8N2W9 (parent)
chain: MAAELVEAKNMVMSFRVSDLQMLLGFVGRSKSGLKHELVTRALQLVQFDCSPELFKKIKELYETRYAKKNSEPAPQPHRPLDPLTMHSTYDRAGAVPRTPLAGPNIDYPVLYGKYLNGLGRLPAKTLKPEVRLVKLPFFNMLDELLKPTELVPQNNEKLQESPCIFALTPRQVELIRNSRELQPGVKAVQVVLRICYSDTSCPQEDQYPPNIAVKVNHSYCSVPGYYPSNKPGVEPKRPCRPINLTHLMYLSSATNRITVTWGNYGKSYSVALYLVRQLTSSELLQRLKTIGVKHPELCKALVKEKLRLDPDSEIATTGVRVSLICPLVKMRLSVPCRAETCAHLQCFDAVFYLQMNEKKPTWMCPVCDKPAPYDQLIIDGLLSKILSECEDADEIEYLVDGSWCPIRAEKERSCSPQGAILVLGPSDANGLLPAPSVNGSGALGSTGGGGPVGSMENGKPGADVVDLTLDSSSSSEDEEEEEEEEEDEDEEGPRPKRRCPFQKGLVPAC

Variants of: B1
Settings: with parp1_human PARP1, P09874
Sequence of parp1_human PARP1, P09874 (P09874 whole entry): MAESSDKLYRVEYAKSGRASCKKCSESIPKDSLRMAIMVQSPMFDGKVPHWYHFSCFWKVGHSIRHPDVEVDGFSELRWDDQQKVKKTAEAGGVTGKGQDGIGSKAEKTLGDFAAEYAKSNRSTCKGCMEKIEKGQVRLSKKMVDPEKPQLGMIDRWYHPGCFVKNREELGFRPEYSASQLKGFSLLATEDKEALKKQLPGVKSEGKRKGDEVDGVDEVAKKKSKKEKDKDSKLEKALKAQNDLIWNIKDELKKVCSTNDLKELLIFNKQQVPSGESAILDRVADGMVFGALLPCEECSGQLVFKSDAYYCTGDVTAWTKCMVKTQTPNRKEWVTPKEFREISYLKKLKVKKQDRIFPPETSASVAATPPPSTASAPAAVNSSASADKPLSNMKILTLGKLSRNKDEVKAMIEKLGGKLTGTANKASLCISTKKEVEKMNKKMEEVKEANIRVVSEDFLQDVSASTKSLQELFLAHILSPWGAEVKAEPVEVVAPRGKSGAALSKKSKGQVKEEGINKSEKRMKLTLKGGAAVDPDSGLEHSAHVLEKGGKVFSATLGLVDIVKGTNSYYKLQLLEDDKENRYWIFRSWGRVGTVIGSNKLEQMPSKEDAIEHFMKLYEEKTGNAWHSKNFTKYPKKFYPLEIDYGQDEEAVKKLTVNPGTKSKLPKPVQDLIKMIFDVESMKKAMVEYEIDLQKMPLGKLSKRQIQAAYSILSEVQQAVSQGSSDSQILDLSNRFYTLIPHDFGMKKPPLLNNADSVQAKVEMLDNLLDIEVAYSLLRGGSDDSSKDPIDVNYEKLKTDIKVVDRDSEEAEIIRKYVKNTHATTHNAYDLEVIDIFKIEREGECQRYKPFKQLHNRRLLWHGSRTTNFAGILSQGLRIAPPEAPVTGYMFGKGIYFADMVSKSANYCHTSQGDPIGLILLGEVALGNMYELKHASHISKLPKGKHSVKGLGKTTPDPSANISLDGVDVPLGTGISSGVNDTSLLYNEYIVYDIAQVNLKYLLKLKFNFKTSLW

Row | effect of a mutation on the interaction | Variant
1 | disrupting interaction | C342F
